Test results: FireProtDB
“And” between values parts separate entries of the source, which are not always exact repeats. Identical values can stand only once.

Details: whole UniProt chain shown
[1] = Halobacterium salinarum (strain ATCC 700922 / JCM 11081 / NRC-1), pH 6.5, Thermal, DSC, None, reversible: no
[2] = Halobacterium salinarum (strain ATCC 700922 / JCM 11081 / NRC-1), pH 7, Thermal, DSC, Potassium phosphate 3 mM, KCl 150 mM, reversible: no
[3] = Homo sapiens, pH 5.2, 20 °C, GdnHCl, CD, Sodium acetate 20 mM, reversible: yes
[4] = Homo sapiens, pH 6.2, 25 °C, 2-Propanol, CD, Piperazine Unknown, NaCl 30 mM, transition: 2, reversible: Yes
[5] = Homo sapiens, pH 7.4, 25 °C, Urea, CD, transition: 2, reversible: yes
[6] = Homo sapiens, pH 7.4, 25 °C, Urea, absorbance, transition: 2, reversible: yes
[7] = Homo sapiens, pH 7.4, 25 °C, Urea, fluorescence, transition: 2, reversible: yes
[8] = Homo sapiens, pH 7.5, 23 °C, GdnHCl, Fluorescence, Tris-HCl 50 mM, reversible: yes
[9] = Hydrogenobacter thermophilus (strain DSM 6534 / IAM 12695 / TK-6), pH 7, Thermal, CD, KH2PO4-NaOH 10 mM, reversible: yes
[10] = Lithobates pipiens, pH 6, 25 °C, GdnHCl, DSC, MES 100 mM, reversible: yes
[11] = Locusta migratoria, pH 3, 20 °C, Thermal, NMR, Unknown
[12] = Locusta migratoria, pH 7, 25 °C, GdnHCl, CD, Sodium phosphate 50 mM, KCl 100 mM, reversible: yes

B1: Bacteriorhodopsin wild type, P02945 (protein)
chain: MLELLPTAVEGVSQAQITGRPEWIWLALGTALMGLGTLYFLVKGMGVSDPDAKKFYAITTLVPAIAFTMYLSMLLGYGLTMVPFGGEQNPIYWARYADWLFTTPLLLLDLALLVDADQGTILALVGADGIMIGTGLVGALTKVYSYRFVWWAISTAAMLYILYVLFFGFTSKAESMRPEVASTFKVLRNVTVVLWSAYPVVWLIGSEGAGIVPLNIETLLFMVLDVSAKVGFGLILLRSRAIFGEAEAPEPSAGDGAAATSD
Tm [1]: 96 °C
unfolding enthalpy (calorimetric) [1]: 83.7 kcal/mol
Tm [2]: 85 °C
unfolding enthalpy (calorimetric) [2]: 23 kcal/mol
unfolding enthalpy (van 't Hoff) [2]: 76 kcal/mol
Tm (Halobacterium salinarum (strain ATCC 700922 / JCM 11081 / NRC-1), pH 7.5, Thermal, DSC, phosphate 190 mM, reversible: no): 95.1 °C
Tm (Halobacterium salinarum (strain ATCC 700922 / JCM 11081 / NRC-1), pH 7.9, Thermal, CD, glycylglycine 50 mM, NaCl 100 mM, reversible: no): 79 °C
Tm (Halobacterium salinarum (strain ATCC 700922 / JCM 11081 / NRC-1), pH 9.5, Thermal, DSC, carbonate 50 mM, NaCl 100 mM, reversible: no): 81 °C

B2: Metallocarboxypeptidase inhibitor wild type, P81511 (protein)
chain: MFLLVFLCCLHLVISSHTPDESFLCYQPDQVCCFICRGAAPLPSEGECNPHPTAPWCREGAVEWVPYSTGQCRTTCIPYVE
denaturant midpoint (higher = more stable) (Hirudo medicinalis, pH 8.4, 23 °C, GdnHCl, Fluorescence, Tris-HCl 0.1 M): 3.6 M
denaturant midpoint (higher = more stable) (Hirudo medicinalis, pH 8.4, 23 °C, GdnSCN, Fluorescence, Tris-HCl 0.1 M): 2.4 M

B3: Arginine kinase wild type, P14208 (protein)
chain: MADAATIAKLEEGFKKLEAATDCKSLLKKYLSKDIFDSLKAKKTSLGATLLDVIQSGVENLDSGVGIYAPDAEAYSLFAPLFDPIIEDYHKGFKQTDKHPAKDFGDVSKFINVDPEGTFVISTRVRCGRSMEGYPFNPCLTEAQYKEMEEKVSSTLSGLEGELKGSYFPLTGMTKEVQQKLIDDHFLFKEGDRFLQAANACRYWPAGRGIYHNDNKTFLVWCNEEDHLRIISMQMGGDLGQVYRRLVSAVNDIEKRVPFSHHDRLGFLTFCPTNLGTTVRASVHIKLPKLAANREKLEEVAAKFSLQVRGTRGEHTEAEGGIYDISNKRRMGLTEFQAVKEMQDGILELIKIEKEM
unfolding free energy (Homarus gammarus, pH 7.4, 22 °C, GdnHCl, CD, Sodium phosphate 100 mM): 5.98 kcal/mol

B4: wild type, Q2YD82 (protein)
chain: MDCAEGRAANLPCNHSTISGNEYVYWYRQIHSQGPQYIIHGLKNNETNEMASLIITEDRKSSTLILPHATLRDTAVYYCIVYDYGQNFVFGPGTRLSVLPYIQNPDPAVYQLRDSKSSDKSVCLFTDFDSQTNVSQSKDSDVYITDKTVLDMRSMDFKSNSAVAWSNKSDFACANAFNNSIIPEDTFFPSPESSCDVKLVEKSFETDTNLNFQNLSVIGFRILLLKVAGFNLLMTLRLWSS
Tm (Homo sapiens, Thermal, fluorescence): 54.9 °C and 53.3 °C

B5: Lysozyme C wild type, P61626 (protein)
chain: MKALIVLGLVLLSVTVQGKVFERCELARTLKRLGMDGYRGISLANWMCLAKWESGYNTRATNYNAGDRSTDYGIFQINSRYWCNDGKTPGAVNACHLSCSALLQDNIADAVACAKRVVRDPQGIRAWVAWRNRCQNRDVRQYVQGCGV
unfolding free energy (Homo sapiens, pH 3, 10 °C, GdnHCl, Fluorescence, glycine-HCl 40 mM, reversible: yes): 11.8 kcal/mol
unfolding free energy (Homo sapiens, pH 4, 10 °C, GdnHCl, CD, glycine-HCl 40 mM, reversible: yes): 14 kcal/mol
denaturant m value [3]: 3.6 kcal/mol/M
denaturant midpoint (higher = more stable) [3]: 4.12 M
unfolding free energy [3]: 14.7 kcal/mol

B6: Glycodelin wild type, P09466 (protein)
chain: MLCLLLTLGVALVCGVPAMDIPQTKQDLELPKLAGTWHSMAMATNNISLMATLKAPLRVHITSLLPTPEDNLEIVLHRWENNSCVEKKVLGEKTENPKKFKINYTVANEATLLDTDYDNFLFLCLQDTTTPIQSMMCQYLARVLVEDDEIMQGFIRAFRPLPRHLWYLLDLKQMEEPCRF
denaturant m value [4]: 1.5 kcal/mol/M
denaturant midpoint (higher = more stable) [4]: 3.5 M
unfolding free energy [4]: 5.4 kcal/mol

B7: Cytochrome b5 type B wild type, O43169 (protein)
chain: MSGSMATAEASGSDGKGQEVETSVTYYRLEEVAKRNSLKELWLVIHGRVYDVTRFLNEHPGGEEVLLEQAGVDASESFEDVGHSSDAREMLKQYYIGDIHPSDLKPESGSKDPSKNDTCKSCWAYWILPIIGAVLLGFLYRYYTSESKSS
denaturant midpoint (higher = more stable) (Homo sapiens, pH 7, 25 °C, GdmSCN, UV/visible spectrophotometer, MOPS 30mM): 1.86 M
Tm (Homo sapiens, pH 7, Thermal, UV/visible spectrophotometer, Potassium phosphate 50mM): 85.7 °C

B8: Peroxiredoxin-6 wild type, P30041 (protein)
chain: MPGGLLLGDVAPNFEANTTVGRIRFHDFLGDSWGILFSHPRDFTPVCTTELGRAAKLAPEFAKRNVKLIALSIDSVEDHLAWSKDINAYNCEEPTEKLPFPIIDDRNRELAILLGMLDPAEKDEKGMPVTARVVFVFGPDKKLKLSILYPATTGRNFDEILRVVISLQLTAEKRVATPVDWKDGDSVMVLPTIPEEEAKKLFPKGVFTKELPSGKKYLRYTPQP
denaturant m value [5]: 1.02 kcal/mol/M
denaturant midpoint (higher = more stable) [5]: 3.02 M
unfolding free energy [5]: 3.17 kcal/mol
denaturant m value [6]: 1.03 kcal/mol/M
denaturant midpoint (higher = more stable) [6]: 2.71 M
unfolding free energy [6]: 2.82 kcal/mol
denaturant m value [7]: 1.04 kcal/mol/M
denaturant midpoint (higher = more stable) [7]: 2.74 M
unfolding free energy [7]: 2.88 kcal/mol

B9: SNARE-associated protein Snapin wild type, O95295 (protein)
chain: MAGAGSAAVSGAGTPVAGPTGRDLFAEGLLEFLRPAVQQLDSHVHAVRESQVELREQIDNLATELCRINEDQKVALDLDPYVKKLLNARRRVVLVNNILQNAQERLRRLNHSVAKETARRRAMLDSGIYPPGSPGK
Tm (Homo sapiens, pH 7.4, Thermal, CD, Tris 50 mM): 57.9 °C

B10: Tissue factor wild type, P13726 (protein)
chain: METPAWPRVPRPETAVARTLLLGWVFAQVAGASGTTNTVAAYNLTWKSTNFKTILEWEPKPVNQVYTVQISTKSGDWKSKCFYTTDTECDLTDEIVKDVKQTYLARVFSYPAGNVESTGSAGEPLYENSPEFTPYLETNLGQPTIQSFEQVGTKVNVTVEDERTLVRRNNTFLSLRDVFGKDLIYTLYYWKSSSSGKKTAKTNTNEFLIDVDKGENYCFSVQAVIPSRTVNRKSTDSPVECMGQEKGEFREIFYIIGAVVFVVIILVIILAISLHKCRKAGVGQSWKENSPLNVS
denaturant midpoint (higher = more stable) [8]: 1.35 M
unfolding free energy [8]: 6.3 kcal/mol

B11: Persulfide dioxygenase ETHE1, mitochondrial wild type, O95571 (protein)
chain: MAEAVLRVARRQLSQRGGSGAPILLRQMFEPVSCTFTYLLGDRESREAVLIDPVLETAPRDAQLIKELGLRLLYAVNTHCHADHITGSGLLRSLLPGCQSVISRLSGAQADLHIEDGDSIRFGRFALETRASPGHTPGCVTFVLNDHSMAFTGDALLIRGCGRTDFQQGCAKTLYHSVHEKIFTLPGDCLIYPAHDYHGFTVSTVEEERTLNPRLTLSCEEFVKIMGNLNLPKPQQIDFAVPANMRCGVQTPTA
Tm (Homo sapiens, pH 7.5, Thermal, CD, Tris-HCl 50mM, NaCl 150mM, transition: 2): 62 °C

B12: wild type, Q96HL2 (protein)
chain: MTKLRAQQCRFWTSFFPKVLEMTGNIDEAEWEWKAGFHRWNNYMMDWKNQFNDYTSKKESCVGL
Tm (Homo sapiens, pH 8, Thermal, DSC, sodium phosphate 50 mM): 62.8 °C

B13: Cytochrome c-552 wild type, P15452 (protein)
chain: MKKFLLVAVVGLAGITFANEQLAKQKGCMACHDLKAKKVGPAYADVAKKYAGRKDAVDYLAGKIKKGGSGVWGSVPMPPQNVTDAEAKQLAQWILSIK
Tm [9]: 90 °C
unfolding enthalpy (van 't Hoff) [9]: 83.5 kcal/mol

B14: Endo-1,4-beta-xylanase 2 wild type, P36217 (protein)
chain: MVSFTSLLAGVAAISGVLAAPAAEVESVAVEKRQTIQPGTGYNNGYFYSYWNDGHGGVTYTNGPGGQFSVNWSNSGNFVGGKGWQPGTKNKVINFSGSYNPNGNSYLSVYGWSRNPLIEYYIVENFGTYNPSTGATKLGEVTSDGSVYDIYRTQRVNQPSIIGTATFYQYWSVRRNHRSSGSVNTANHFNAWAQQGLTLGTMDYQIVAVEGYFSSGSASITVS
Tm (Hypocrea jecorina (strain ATCC 56765 / BCRC 32924 / NRRL 11460 / Rut C-30), pH 5, Thermal, DSC, citrate - phosphate buffer 50 mM): 61.4 °C

B15: Thymidylate synthase wild type, P00469 (protein)
chain: MLEQPYLDLAKKVLDEGHFKPDRTHTGTYSIFGHQMRFDLSKGFPLLTTKKVPFGLIKSELLWFLHGDTNIRFLLQHRNHIWDEWAFEKWVKSDEYHGPDMTDFGHRSQKDPEFAAVYHEEMAKFDDRVLHDDAFAAKYGDLGLVYGSQWRAWHTSKGDTIDQLGDVIEQIKTHPYSRRLIVSAWNPEDVPTMALPPCHTLYQFYVNDGKLSLQLYQRSADIFLGVPFNIASYALLTHLVAHECGLEVGEFIHTFGDAHLYVNHLDQIKEQLSRTPRPAPTLQLNPDKHDIFDFDMKDIKLLNYDPYPAIKAPVAV
unfolding free energy (Lacticaseibacillus casei, pH 7, 4 °C, Urea, CD, KHPO4 20 mM, KCl 0.5 M, reversible: yes): 19.1 kcal/mol

B16: Subtilisin Savinase wild type, P29600 (protein)
chain: AQSVPWGISRVQAPAAHNRGLTGSGVKVAVLDTGISTHPDLNIRGGASFVPGEPSTQDGNGHGTHVAGTIAALNNSIGVLGVAPSAELYAVKVLGASGSGSVSSIAQGLEWAGNNGMHVANLSLGSPSPSATLEQAVNSATSRGVLVVAASGNSGAGSISYPARYANAMAVGATDQNNNRASFSQYGAGLDIVAPGVNVQSTYPGSTYASLNGTSMATPHVAGAAALVKQKNPSWSNVQIRNHLKNTATSLGSTNLYGSGLVNAEAATR
Tm (Lederbergia lenta, pH 8.8, Thermal, CD, Tris buffer 100 mM, reversible: No): 77.2 °C and 79.2 °C
Tm (Lederbergia lenta, pH 9, Thermal, DSC, boric acid 100 mM, CaCl2 2 mM): 72.7 °C and 75.5 °C

B17: Protein P-30 wild type, P22069 (protein)
chain: QDWLTFQKKHITNTRDVDCDNIMSTNLFHCKDKNTFIYSRPEPVKAICKGIIASKNVLTTSEFYLSDCNVTSRPCKYKLKKSTNKFCVTCENQAPVHFVGVGSC
denaturant m value [10]: 3.08 kcal/mol/M
denaturant midpoint (higher = more stable) [10]: 4.5 M
unfolding free energy [10]: 13.9 kcal/mol

B18: Protease inhibitors wild type, P80060 (protein)
chain: MKFALALCAAVLLVVLVQAEEKCTPGQVKQQDCNTCTCTPTGVWGCTRKGCQPAKREISCEPGKTFKDKCNTCRCGADGKSAACTLKACPNQ
unfolding enthalpy (van 't Hoff) [11]: 19.3 kcal/mol
unfolding free energy [11]: 1.1 kcal/mol

B19: Apolipophorin-3b wild type, P10762 (protein)
chain: MNTLLAVLMLAVAAQARPDAAGHVNIAEAVQQLNHTIVNAAHELHETLGLPTPDEALNLLTEQANAFKTKIAEVTTSLKQEAEKHQGSVAEQLNRFARNLNNSIHDAATSAQPADQLNSLQSALTNVGHQWQTSQPRPSVAQEAWAPVQSALQEAAEKTKEAAANLQNSIQSAVQKPAN
denaturant m value [12]: 3.46 kcal/mol/M and 4.33 kcal/mol/M
denaturant midpoint (higher = more stable) [12]: 0.6 M and 0.27 M
